Here are results for four substances from patent US7807396.

Data set [1] addresses Aβ added to the cultures at 10 µM in a non-fibrillar state. Nature of the data set: cell-based or functional assay.
For data set [2], the target named is human β-endorphin1-31 (human) (UniProt P01189). Kind of data set: cell-based or functional assay.
The target in data set [3] is amyloid beta peptide Aβ1-40. Nature of the data set: cell-based or functional assay.
Data set [4] deals with dynorphin B-9 (UniProt P01213).

Chain of human β-endorphin1-31 (human) (P01189 237-267 limits assumed): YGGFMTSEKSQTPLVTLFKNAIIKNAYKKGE

In data set [1], “human neprilysin expressed from a lentiviral construct in primary neuronal cultures of neprilysin deficient mice (from UniProt P08473 2-750) (enzyme)” returned a survival of neuronal cells subjected to Aβ induced neurotoxicity (% increase in cell survival) of 75.

Regarding “insulysin purified from a thymoma cell line, EL-4 (from UniProt Q9JHR7 42-1019) (enzyme)”, the specific activity of enzyme purified from a thymoma cell line, EL-4 in data set [2] came out at 3.3 µmols/min/mg.

For “recombinant rat insulysin with an N-terminal His6 affinity tag, expressed in baculovirus-infected Sf9 cells (from UniProt P35559 42-1019) (enzyme)”, in data set [3], the inhibition of deposition of 125I-Aβ1-40 onto pre-deposited Aβ1-40 (% inhibition with 50 ng of insulysin) worked out at 50.

On to trypsin, for which the “trypsin hydrolysis of the fluorogenic peptide Abz-GGFLRKHGQ-EDDnp (SEQ ID NO: 14)” value in data set [4] was “trypsin hydrolysis of the same peptide showed inhibition, not activation, by dynorphin B-9”.
